Patent publication US20040014191A1, “Nitroreductase enzymes” (priority 1999, published 2004)
Like-named read-outs stand apart in the source and are kept apart here.

Tests used:
[1] = Nitroreductase enzyme assay with CB 1954 as substrate (HPLC); type: biochemical; conditions: for CB1954 (product formed / activity): Table 2, recombinant B. subtilis enzymes, crude lysates
[2] = Nitroreductase enzyme assay with SN 23862 as substrate (HPLC); type: biochemical; conditions: for SN23862 (activity): Table 2, recombinant B. subtilis enzymes, crude lysates

| Molecule | reduction of CB1954: activity and product formed [1] | CB1954 (product formed / activity) [1] | reduction of CB1954: activity and product formed ([1]; listed as B. subtilis YwrO) | activity with SN23862 [2] | SN23862 (activity) [2] | activity with SN23862 ([2]; listed as B. subtilis YwrO) | CB1954 kcat ([1]; Table 1) [s⁻¹] | CB 1954 product ([1]; Table 1, purified enzymes) [HX] | SN23862 Km ([2]; Table 1) | SN23862 kcat ([2]; Table 1) |
| --- | --- | --- | --- | --- | --- | --- | --- | --- | --- | --- |
| Bs YwrO: nitroreductase from B. subtilis, SEQ ID NO: 4 (protein, listed as Bacillus subtilis) MKILVLAVHPHMETSVVNKAWAEELSKHDNITVRDLYKEYPDEAIDVAKEQQLCEEYDRIVFQFPLYWYSSPPLLKKWQDLVLTYGWAFGSEGNALHGKELMLAVSTGSEAEKYQAGGANHYSISELLKPFQATSNLIGMKYLPPYVFYGVNYAAAEDISHSAKRLAEYIQQPFV | inactive with either CB 1954 or SN 23862 | 4HX | converts CB1954 to the 4HX derivative alone | inactive with either CB 1954 or SN 23862 | inactive | inactive against SN23862 |  |  |  |  |
| YrkL: nitroreductase from B. subtilis, SEQ ID NO: 6 (protein, listed as Bacillus subtilis) MKTLVIVIHPNLETSVVNKTWMNRLKQEKDITVHDLYGEYPNFIIDVEKEQQLLLDHERIVFQFPMYWYSSPALLKQWEDDVLTHGWAYGTGGTKLHGKELLLAISSGAQESDYQAGGEYNITISELIRPFQVTANYIGMRFLPAFTQYGTLHLSKEDVKNSAERLVDYLKAEH | no activity | inactive |  | no activity | inactive |  |  |  |  |  |
| Rat DTD: rat DT-diaphorase enzyme (protein, UniProt P05982 2-274, looked up) NAD(P)H dehydrogenase …: AVRRALIVLAHAERTSFNYAMKEAAVEALKKKGWEVVESDLYAMNFNPLISRNDITGEPKDSENFQYPVESSLAYKEGRLSPDIVAEQKKLEAADLVIFQFPLYWFGVPAILKGWFERVLVAGFAYTYATMYDKGPFQNKKTLLSITTGGSGSMYSLQGVHGDMNVILWPIQSGILRFCGFQVLEPQLVYSIGHTPPDARVQVLEGWKKRLETVWEESPLYFAPSSLFDLNFQAGFLLKKEVQEEQKKNKFGLSVGHHLGKSIPADNQIKARK |  |  |  |  |  |  | 0.07 | 4 | inactive | inactive |
| YdeQ: nitroreductase from B. subtilis, SEQ ID NO: 8 (protein, listed as Bacillus subtilis) MDHMKTLVLVVHPNIESSRINKKWKEAVLSEPDVTVHDLYEKYRDQPIDVEFEQQQLLAHDRIVFQFPLYWYSSPPLLKQWFDEVFTFGWAHGPGGNKLKGKEWVTAMSIGSPEHSYQAGGYNLFSISELTKPFQASAHLVGMTYLPSFAEYRANTISDQEIAESANRYVKHITNIELNPKVRLQRYLKQLESVDLT | no activity with prodrugs | inactive |  | no activity with prodrugs | inactive |  |  |  |  |  |
